Assay results: US20110300139A1 (GENE TECHNO SCIENCE, published 2011)
One block for each molecule: values may come before it.

Key:
human α9 integrin [1] = molecular target: T1, human α9 integrin (human, UniProt Q13797 30-1035); assay: cell-based or functional assay
T1 sequence: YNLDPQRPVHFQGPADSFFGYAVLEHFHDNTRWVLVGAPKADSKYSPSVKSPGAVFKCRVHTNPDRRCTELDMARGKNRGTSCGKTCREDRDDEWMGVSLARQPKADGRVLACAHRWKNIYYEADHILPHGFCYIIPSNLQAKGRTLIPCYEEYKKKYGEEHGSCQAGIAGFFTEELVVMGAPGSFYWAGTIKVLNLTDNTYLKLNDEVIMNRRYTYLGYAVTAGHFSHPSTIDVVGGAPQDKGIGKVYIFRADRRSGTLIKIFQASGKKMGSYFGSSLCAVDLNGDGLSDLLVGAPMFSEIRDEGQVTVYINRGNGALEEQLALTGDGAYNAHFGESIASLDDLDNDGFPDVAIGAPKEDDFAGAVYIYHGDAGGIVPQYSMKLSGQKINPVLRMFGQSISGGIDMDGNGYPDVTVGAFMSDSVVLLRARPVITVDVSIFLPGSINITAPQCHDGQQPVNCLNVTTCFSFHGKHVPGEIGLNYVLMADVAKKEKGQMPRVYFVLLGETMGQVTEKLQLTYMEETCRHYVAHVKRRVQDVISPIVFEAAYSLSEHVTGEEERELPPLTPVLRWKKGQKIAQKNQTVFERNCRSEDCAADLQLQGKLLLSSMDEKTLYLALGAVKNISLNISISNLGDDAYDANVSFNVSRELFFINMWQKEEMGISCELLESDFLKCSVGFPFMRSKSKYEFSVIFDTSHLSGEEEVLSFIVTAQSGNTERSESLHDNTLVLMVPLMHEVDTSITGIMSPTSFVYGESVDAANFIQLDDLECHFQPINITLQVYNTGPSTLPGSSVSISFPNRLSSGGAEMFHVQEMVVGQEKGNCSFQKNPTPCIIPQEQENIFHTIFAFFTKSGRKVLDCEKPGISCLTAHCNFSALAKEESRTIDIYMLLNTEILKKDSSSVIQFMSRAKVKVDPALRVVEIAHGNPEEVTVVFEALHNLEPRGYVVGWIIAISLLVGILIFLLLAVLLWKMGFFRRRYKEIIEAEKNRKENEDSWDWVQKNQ

human α9 integrin [2] = molecular target: T1, human α9 integrin; assay: FACS binding assay on CHO/huα9 cells
Description: (§1) Mouse K33N antibody was tested at various concentrations, starting at 1.67 μg/ml and serial 3-fold dilutions, for binding to CHO/huα9 cells. Geometric mean channel fluorescence values (MCF; Y-axis) are plotted at each antibody concentration tested (X-axis) in the figure. EC₅₀ values were calculated using GraphPad Prism (GraphPad Software, San Diego, Calif.).
as §1, with “Each” for “Mouse K33N”, “5” for “1.67”
Binding of mouse, chimeric and humanized K33N antibodies to human α9 integrin was examined in a FACS binding assay with CHO/huα9 cells. Approximately 5×10⁵ CHO/huα9 cells/test were washed with FACS Binding Buffer (PBS containing 0.5% BSA and 0.05% NaN₃) and suspended in 200 μl of FACS Binding Buffer containing various amounts of test antibody. After 30 min on ice, the cells were washed with FACS Binding Buffer. The cells stained with mouse K33N were then suspended in 100 μl of 1/200-diluted FITC-labeled goat anti-mouse IgG polyclonal antibody (SouthernBiotech) in FACS Binding Buffer. The cells stained with chimeric or humanized K33N were suspended in 100 μl of 1/200-diluted FITC-labeled goat anti-human IgG polyclonal antibody (SouthernBiotech) in FACS Binding Buffer. After 30 min on ice, the cells were washed with FACS Binding Buffer, suspended in 200 μl of FACS Binding Buffer, and analyzed using a FACScan flow cytometer (BD Biosciences, Franklin Lakes, N.J.). […] Between ChK33N and HuK33N antibodies, the binding pattern was very similar to each other (FIG. 22).

human α4 integrin = molecular target: T2, human α4 integrin (human, UniProt P13612 34-1032); assay: hybridoma screening on transfected cells
T2 construct: whole, on cells; Expressed on CHO K1 cells and used as the negative screen for hybridomas; also called CHO K1 cells expressing human α4 integrin
T2 sequence (looked up): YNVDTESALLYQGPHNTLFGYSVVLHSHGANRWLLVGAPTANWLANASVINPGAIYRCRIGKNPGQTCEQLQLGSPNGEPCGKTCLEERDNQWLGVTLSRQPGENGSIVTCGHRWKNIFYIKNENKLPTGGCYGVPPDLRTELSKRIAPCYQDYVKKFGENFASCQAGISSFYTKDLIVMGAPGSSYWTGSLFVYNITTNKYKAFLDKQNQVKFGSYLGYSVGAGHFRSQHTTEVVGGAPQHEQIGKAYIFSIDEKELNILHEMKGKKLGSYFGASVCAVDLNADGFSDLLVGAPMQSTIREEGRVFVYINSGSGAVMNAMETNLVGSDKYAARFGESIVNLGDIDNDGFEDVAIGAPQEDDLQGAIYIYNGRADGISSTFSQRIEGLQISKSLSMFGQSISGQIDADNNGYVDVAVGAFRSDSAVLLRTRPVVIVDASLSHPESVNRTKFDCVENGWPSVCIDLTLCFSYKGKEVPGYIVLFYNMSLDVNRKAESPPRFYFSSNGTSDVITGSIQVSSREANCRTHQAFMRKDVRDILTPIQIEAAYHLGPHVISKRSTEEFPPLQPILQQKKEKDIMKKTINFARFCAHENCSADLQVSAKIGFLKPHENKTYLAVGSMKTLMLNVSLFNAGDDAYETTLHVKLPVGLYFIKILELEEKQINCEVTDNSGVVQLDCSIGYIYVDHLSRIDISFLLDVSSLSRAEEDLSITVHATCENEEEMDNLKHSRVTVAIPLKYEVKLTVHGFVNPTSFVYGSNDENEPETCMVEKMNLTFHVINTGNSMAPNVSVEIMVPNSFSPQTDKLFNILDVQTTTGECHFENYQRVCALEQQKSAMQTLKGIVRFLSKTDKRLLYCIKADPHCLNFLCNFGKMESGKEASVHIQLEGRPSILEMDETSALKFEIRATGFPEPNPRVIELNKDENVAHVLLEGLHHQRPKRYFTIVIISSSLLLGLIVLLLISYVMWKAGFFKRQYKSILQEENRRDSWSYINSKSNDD
Description: Mouse monoclonal antibodies against human α9 integrin were prepared according to the subtractive immunization method (by Williams C. V., et al., 1992, Biotechniques 12:842-847). Briefly, three Balb/c mice were injected intraperitoneally with NIH-3T3 cells expressing human α9 integrin (Human α9/NIH-3T3 cells) at 3×10⁶ per mouse. At one and two weeks after the injection, the mice were injected intraperitoneally with 3×10⁶ cells/mouse of Human α9/NIH-3T3 cells, followed by another intravenous injection of the same cells at 2×10⁶ cell/mouse one week later. Hybridomas were prepared by the methods well known in the art (see, for example, Harlow et al., Antibodies: A Laboratory Manual, (Cold Spring Harbor Laboratory Press, 2nd ed. 1988); Hammerling, et al., in: Monoclonal Antibodies and T-Cell Hybridomas, pp. 563-681 (Elsevier, N.Y., 1981). Hybridoma clones producing monoclonal antibodies that were immunospecifically reactive with Human α9/CHO-K1 cells expressing human α9 integrin and with human melanoma cells endogenously expressing human α9 integrin but not with CHO K1 cells expressing human α4 integrin were established and a hybridoma clone (i.e., K33N) producing monoclonal antibody immunospecifically recognizing human α9 integrin were isolated.

IC50 of cell adhesion inhibition (G-361 cells to hTNC (AEIDGIEL)-BSA) (human α9 integrin [1]): 0.053 µg/mL
Molecule: mouse anti human α9 integrin antibody Y9A2

IC50 of cell adhesion inhibition (G-361 cells to hTNC (AEIDGIEL)-BSA) (human α9 integrin [1]): 0.075 µg/mL
EC50 (human α9 integrin [2]): 0.104 µg/mL
binding result (human α4 integrin): no binding
B1: mouse K33N monoclonal antibody (hybridoma FERM BP-10830) (antibody, mouse IgG1, V domains shown)
VH: QVQLQQSGPELVKPGASVKISCKASGYSFTSYYMNWVKKRPGQGLEWIGWIFPGSGNTKYNEKFKGKATLTADTSSSTAYMQVSSLTSEDSAVYFCARSWVSYERGYYFDYWGQGTSLTVSS
VL: DIQMTQSPASLAASVGETVTLTCRASENIYYSLAWYQQKQGKSPQLLIYNANSLEDGVPSRFSGSGSGTQYSMKINSMQPEDTATYFCKQAYDVPYTFGGGTKLEIK
notes: also called mouse K33N antibody

IC50 of cell adhesion inhibition (G-361 cells to hTNC (AEIDGIEL)-BSA) (human α9 integrin [1]): 0.09 µg/mL
EC50 (human α9 integrin [2]): 0.143 µg/mL
B2: chimeric K33N IgG1/κ antibody (antibody, V domains shown)
VH: B1 VH
VL: B1 VL
notes: Mouse K33N variable regions on human gamma-1 and kappa constant regions (vector pChK33N); also called ChK33N

IC50 of cell adhesion inhibition (G-361 cells to hTNC (AEIDGIEL)-BSA) (human α9 integrin [1]): 0.084 µg/mL
EC50 (human α9 integrin [2]): 0.151 µg/mL
B3: humanized K33N IgG1/κ antibody (antibody, V domains shown)
VH: QVQLVQSGAEVKKPGASVKVSCKASGYSFTSYYMNWVRQAPGQRLEWIGWIFPGSGNTKYNEKFKGKATLTADTSASTAYMELSSLRSEDTAVYYCARSWVSYERGYYFDYWGQGTLVTVSS
VL: DIQMTQSPSSLSASVGDRVTITCRASENIYYSLAWYQQKPGKAPKLLIYNANSLEDGVPSRFSGSGSGTQYTLTISSLQPEDFATYYCKQAYDVPYTFGQGTKVEIKR
notes: also called HuK33N
